Assay results as given in PMC12541460.
Values belong to the substance of their own block, whether it stands above or below them.

Columns and labels:
[1] = molecular target: Mcm2-7 helicase labeled at the N terminus of Mcm6 with DyLight 650 (Mcm2-7^6N-650), used as Mcm2-7-Cdt1 (S. cerevisiae) (UniProt P29469); test: FRET or BRET; single-molecule FRET with colocalisation (CoSMoS), Orc6-tether assay: donor DyLight 550 on Orc6 of ORC, acceptor DyLight 650 at the N terminus of Mcm6 of Mcm2-7; origin DNA attached to the slide; 0.5 to 1 nM ORC, 3 to 10 nM Cdc6, 10 to 15 nM Mcm2-7-Cdt1; 25 mM HEPES-KOH pH 7.6, 300 mM potassium glutamate, 5 mM Mg(OAc)2, 3 mM ATP; only events with ORC and Mcm2-7 both on DNA for at least five frames; the high E_FRET state is read as the Orc6N-Mcm2-7N (tether) interaction
[2] = molecular target: Mcm2-7^6N-650 in complex with Cdt1 labeled with DyLight 650 (Mcm2-7^6N-650-Cdt1^C-650) (S. cerevisiae) (UniProt P29469)
[3] = molecular target: Mcm2-7^6N-650 in complex with Cdt1 labeled with DyLight 650 (Mcm2-7^6N-650-Cdt1^C-650) (S. cerevisiae) (UniProt P29469); remark: listed apart in the source
[4] = molecular target: Mcm2-7^6N-650 in complex with Cdt1 labeled with DyLight 650 (Mcm2-7^6N-650-Cdt1^C-650) (S. cerevisiae) (UniProt P29469); remark: listed apart in the source
[5] = molecular target: Mcm2-7^6N-650 in complex with Cdt1 labeled with DyLight 650 (Mcm2-7^6N-650-Cdt1^C-650) (S. cerevisiae) (UniProt P29469); test: FRET or BRET; single-molecule FRET with colocalisation (CoSMoS), Orc6-tether assay: donor DyLight 550 on Orc6 of ORC, acceptor DyLight 650 at the N terminus of Mcm6 of Mcm2-7; origin DNA attached to the slide; 0.5 to 1 nM ORC, 3 to 10 nM Cdc6, 10 to 15 nM Mcm2-7-Cdt1; 25 mM HEPES-KOH pH 7.6, 300 mM potassium glutamate, 5 mM Mg(OAc)2, 3 mM ATP; only events with ORC and Mcm2-7 both on DNA for at least five frames; the high E_FRET state is read as the Orc6N-Mcm2-7N (tether) interaction

Substance: CDK-phosphorylated ORC^6N-550 (Orc2 and Orc6 phosphorylated), P54784 1-914; P32833 1-620; P54790 1-616; P54791 1-529; P50874 1-479; P38826 1-435
lifetime of the tether interaction, fold shorter than unphosphorylated ORC [1]: 2.5 fold | median time of tether formation, fold of unphosphorylated ORC [1]: > 2 fold | percent of recruited Mcm2-7 that exhibited a stable high E FRET (tether) state [1]: 53.9%

Substance: ORC that lacks Orc6N and has the Orc6 lnk1 region scrambled, labeled with DyLight 550 (ORC^6ΔN-lnk1scr-550) (from UniProt P54784 1-914; P32833 1-620; P54790 1-616; P54791 1-529; P50874 1-479; P38826 1-435) (complex)
ORC molecules released within 7.8 s (three frames) after Cdt1 release [2]: 83% | ORC molecules retained for more than 100 s on DNA after Cdt1 release (of 106 molecules) [2]: 0 | percent of stably recruited Mcm2-7 that reached the high E FRET (tether) state [1]: 4.4%

Substance: ORC that lacks the Orc6 N-terminal domain, labeled with DyLight 550 (ORC^6ΔN-550) (from UniProt P54784 1-914; P32833 1-620; P54790 1-616; P54791 1-529; P50874 1-479; P38826 1-435) (complex)
ORC molecules released within 7.8 s (three frames) after Cdt1 release [2]: 80% | ORC molecules retained for more than 100 s on DNA after Cdt1 release (of 106 molecules) [2]: 1 | percent of stably recruited Mcm2-7 that reached the high E FRET (tether) state [1]: 82.3%

Other lines, results leading:

ORC molecules released after 7.8 s after Cdt1 release [2]: 63% | ORC molecules retained for longer than 100 s after Cdt1 release [2]: 13% | median lifetime of the tether interaction [1]: 9.7 s | median time to form the tether interaction, fold of WT ORC [1]: 2 fold
Substance: ORC with the Orc6 lnk1 region (aa 120 to 185) scrambled, labeled with DyLight 550 (ORC^6-lnk1scr-550) (from UniProt P54784 1-914; P32833 1-620; P54790 1-616; P54791 1-529; P50874 1-479; P38826 1-435) (complex)

median time of ORC retention after Cdt1 release, Orc6 tether interaction absent at the time of Cdt1 release [3]: 3.8 s | median time of ORC retention after Cdt1 release, Orc6 tether interaction present at the time of Cdt1 release [3]: 23.8 s | ORC molecules released within 7.8 s (three frames) after Cdt1 release [2]: 39% | ORC molecules retained for more than 100 s on DNA after Cdt1 release [2]: 24% | ORC molecules released within one video frame (~2.6 s) after Cdt1 release, tether interaction present as Cdt1 was released [4]: 25% | ORC molecules released within one video frame (~2.6 s) after Cdt1 release, tether not present as Cdt1 is released (of 33 molecules) [4]: 16 | median duration of the Orc6N-Mcm2-7N interaction [1]: 26.4 s | median time to form the high E FRET state after Mcm2-7-Cdt1 recruitment [1]: 7.2 s | percent of stably recruited Mcm2-7 that reached the high E FRET (tether) state [1]: 91.5% | recruitment events in which a high E FRET (tether) state formed (of 162 events) [5]: 152
Substance: origin recognition complex labeled at the Orc6 N-terminal region with DyLight 550 (ORC^6N-550), P54784 1-914; P32833 1-620; P54790 1-616; P54791 1-529; P50874 1-479; P38826 1-435
